Assay results as given in article PMC6805999, “Molecular Mechanism of SR Protein Kinase 1 Inhibition by the Herpes Virus Protein ICP27” (mBio, 2019).
Several values for one entry are separate records, joined by “and”; a condition that tells them apart may be missing. Equal values may be shown once.

Columns and labels:
[1] = biological target: SRPK1; conditions: determined using in vitro phosphorylation assays; read-out: dissociation constant (Kd) of SRSF1 RS domain binding to SRPK1; cited from earlier work
[2] = biological target: T1, GFP-SRPK1 (Homo sapiens, UniProt Q96SB4); assay: Coimmunoprecipitation of ICP27 with GFP-SRPK1 (anti-GFP IP, Western blot anti-ICP27); format: cell-based; conditions: HeLa cells cotransfected with GFP-SRPK1 and ICP27 plasmid, infected with 27-LacZ for 8 h
T1 construct: expressed in transfected cells; host or cells: HeLa cells, infected with HSV-1 27-LacZ
Text: (§1) ICP27 mutants were constructed to target sites within the RGG box that contact SRPK1 in the crystal structure. Arginines at positions 142, 144, 146, and 148 were changed to glycine (G) as single (R142G, R146G, or R148G), double (R142G R146G), and quadruple (R142G R144G R146G R148G) substitutions. The ICP27 mutant plasmids were cotransfected with a plasmid expressing green fluorescent protein (GFP)-SRPK1 and subsequently infected with ICP27 null mutant virus 27-LacZ to recapitulate the conditions of infection. At 8 h after infection, lysates were immunoprecipitated with anti-GFP antibody, and samples were analyzed by Western blotting and probed with antibody to ICP27 (Fig. 5A). […] ICP27 interaction with endogenous SRPK1 was also analyzed. Cells were transfected with WT and ICP27 mutant plasmids and infected with 27-LacZ as described above. Immunoprecipitation was performed with anti-ICP27 antibody and the blots were probed with antibody to SRPK1 (Fig. 5B). SRPK1 was only coimmunoprecipitated with WT ICP27 and was not detected with any of the mutants.
(§2) HeLa cells cotransfected with GFP-SRPK1 and WT ICP27 or RGG box mutants were infected for 8 h with 27-LacZ. Immunoprecipitation was performed using anti-GFP antibody. Western blots were probed with anti-GFP or anti-ICP27 antibody and anti-β-actin as a loading control. […] GFP fluorescence was visualized directly. […]

[3] = system: GFP-SRPK1; assay: Immunofluorescence: cellular localization of GFP-SRPK1; format: cell-based, rabbit skin fibroblasts (RSF); conditions: RSF cells cotransfected with GFP-SRPK1 and ICP27 plasmid, infected with 27-LacZ, fixed 6 h later; representative of ∼80% of cells
Description: HeLa cells cotransfected with GFP-SRPK1 and WT ICP27 or RGG box mutants were infected for 8 h with 27-LacZ. Immunoprecipitation was performed using anti-GFP antibody. Western blots were probed with anti-GFP or anti-ICP27 antibody and anti-β-actin as a loading control. (B) HeLa cells transfected with WT and ICP27 RGG box mutants were infected with 27-LacZ for 8 h. Immunoprecipitation was performed with anti-ICP27 antibody. Western blots were probed with anti-SRPK1 or anti-ICP27 antibody as indicated and anti-β-actin as a loading control. (C) RSF cells were transfected with GFP-SRPK1 and 16 h later were mock infected, infected with WT HSV-1 or 27-LacZ, or were cotransfected with GFP-SRPK1 and WT ICP27 or ICP27 RGG box mutants and infected 16 later with 27-LacZ. Cells were fixed 6 h later and immunofluorescent staining was performed with anti-ICP27. ICP4 antibody was used to stain the 27-LacZ sample to mark the nucleus. GFP fluorescence was visualized directly. The panels shown are representative of ∼80% of cells visualized. (D) HeLa cells were transfected with GFP-SRPK1 and WT ICP27 or RGG box mutants and were infected with 27-LacZ 16 h after transfection for 8 h. […]
In immunofluorescence experiments, rabbit skin fibroblasts (RSF) were transfected and/or infected as indicated in the legend to Fig. 5. […] GFP fluorescence was viewed directly. […]

[4] = system: SRPK1 phosphorylation of SR proteins; assay: In vivo SR protein phosphorylation analysis (Western blot, antiphosphoepitope SR antibody); format: cell-based; conditions: HeLa cells cotransfected with GFP-SRPK1 and ICP27 plasmid, infected with 27-LacZ for 8 h
Description: HeLa cells cotransfected with GFP-SRPK1 and WT ICP27 or RGG box mutants were infected for 8 h with 27-LacZ. Immunoprecipitation was performed using anti-GFP antibody. Western blots were probed with anti-GFP or anti-ICP27 antibody and anti-β-actin as a loading control. (B) HeLa cells transfected with WT and ICP27 RGG box mutants were infected with 27-LacZ for 8 h. Immunoprecipitation was performed with anti-ICP27 antibody. Western blots were probed with anti-SRPK1 or anti-ICP27 antibody as indicated and anti-β-actin as a loading control. (C) RSF cells were transfected with GFP-SRPK1 and 16 h later were mock infected, infected with WT HSV-1 or 27-LacZ, or were cotransfected with GFP-SRPK1 and WT ICP27 or ICP27 RGG box mutants and infected 16 later with 27-LacZ. Cells were fixed 6 h later and immunofluorescent staining was performed with anti-ICP27. ICP4 antibody was used to stain the 27-LacZ sample to mark the nucleus. GFP fluorescence was visualized directly. The panels shown are representative of ∼80% of cells visualized. (D) HeLa cells were transfected with GFP-SRPK1 and WT ICP27 or RGG box mutants and were infected with 27-LacZ 16 h after transfection for 8 h. Portions of cell lysates were fractionated by SDS-PAGE, and Western blots were probed with antiphosphoepitope SR antibody, anti-SF2 (SRSF1), anti-ICP27 antibody, and anti-lamin B1 antibody as a loading control. […]

[5] = biological target: T2, endogenous SRPK1 (Homo sapiens, UniProt Q96SB4); assay: Coimmunoprecipitation of endogenous SRPK1 with ICP27 (anti-ICP27 IP, Western blot anti-SRPK1); format: cell-based; conditions: HeLa cells transfected with ICP27 plasmid, infected with 27-LacZ for 8 h
T2 construct: endogenous in cells; host or cells: HeLa cells
Text: as §1, §2

T1 sequence (Q96SB4 whole entry): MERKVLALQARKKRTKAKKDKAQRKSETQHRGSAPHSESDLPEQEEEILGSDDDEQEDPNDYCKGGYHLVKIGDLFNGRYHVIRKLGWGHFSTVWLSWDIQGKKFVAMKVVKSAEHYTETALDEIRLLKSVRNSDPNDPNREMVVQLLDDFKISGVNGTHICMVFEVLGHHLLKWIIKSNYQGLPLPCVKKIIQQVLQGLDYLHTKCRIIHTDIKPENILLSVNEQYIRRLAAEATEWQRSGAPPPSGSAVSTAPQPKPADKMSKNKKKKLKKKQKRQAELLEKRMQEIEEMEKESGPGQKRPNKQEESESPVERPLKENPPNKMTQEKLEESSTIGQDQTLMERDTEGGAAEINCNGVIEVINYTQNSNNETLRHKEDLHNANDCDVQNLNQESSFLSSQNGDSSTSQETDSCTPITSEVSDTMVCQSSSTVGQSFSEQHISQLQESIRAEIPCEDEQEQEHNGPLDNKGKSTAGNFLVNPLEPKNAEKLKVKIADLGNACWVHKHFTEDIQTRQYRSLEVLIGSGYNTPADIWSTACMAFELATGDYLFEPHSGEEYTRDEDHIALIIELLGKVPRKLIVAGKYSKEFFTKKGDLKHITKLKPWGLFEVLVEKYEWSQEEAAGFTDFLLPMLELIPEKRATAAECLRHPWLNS
T2 sequence (Q96SB4 whole entry): as above

Molecule	Kd [1]	coimmunoprecipitation of ICP27 with GFP-SRPK1 [2]	cellular localization of SRPK1 [3]	level of phosphorylation for SRp40 (SRSF5) reduced [4]	phosphorylation of SRp30 (SRSF1) reduced [4]	coimmunoprecipitation of endogenous SRPK1 with ICP27 [5]
SRSF1: prototype SR protein, native cellular substrate of SRPK1	~50 nM and 50 nM					
WT ICP27: full-length wild-type HSV-1 protein ICP27 expressed from plasmid (protein) MATDIDMLIDLGLDLSDSDLDEDPPEPAESRRDDLESDSSGECSSSDEDMEDPHGEDGPEPILDAARPAVRPSRPEDPGVPSTQTPRPTERQGPNDPQPAPHSVWSRLGARRPSCSPEQHGGKVARLQPPPTKAQPARGGRRGRRRGRGRGGPGAADGLSDPRRRAPRTNRNPGGPRPGAGWTDGPGAPHGEAWRGSEQPDPPGGQRTRGVRQAPPPLMTLAIAPPPADPRAPAPERKAPAADTIDATTRLVLRSISERAAVDRISESFGRSAQVMHDPFGGQPFPAANSPWAPVLAGQGGPFDAETRRVSWETLVAHGPSLYRTFAGNPRAASTAKAMRDCVLRQENFIEALASADETLAWCKMCIHHNLPLRPQDPIIGTTAAVLDNLATRLRPFLQCYLKARGLCGLDELCSRRRLADIKDIASFVFVILARLANRVERGVAEIDYATLGVGVGEKMHFYLPGACMAGLIEILDTHRQECSSRVCELTASHIVAPPYVHGKYFYCNSLF		efficiently coimmunoprecipitated	prominently nuclear	reduced	reduced	coimmunoprecipitated
